According to the supplement of paper PMC10126150:
± gives the standard deviation of the averaged measurements.

test system: ATP; experiment: switch fluorescence ratio, 500 uM ATP over buffer (Cy3 cluster intensity, sum of 5 cycles each) (fold (ratio)); higher = stronger signal-on switching upon ATP binding; sequences stand for … in TCGTCGGCAGCGTCAGATGTGTATAAGAGACAGTTTTTTTTTTTTTTTTTTTTTTTTT…TC; settings: aptamer strand: ATP DNA aptamer (quencher-CACCTGGGGGAGTATTGCGGAGGAAGG + anchor), 100 nM annealed; ATP concentration: 500 uM
Summary of the method: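 Clusters carrying Cy3-labelled switching strands on a modified Illumina MiSeq flow-cell were annealed to 100 nM quencher-labelled ATP aptamer and imaged in selection buffer. They were imaged again after 15 min with 500 uM ATP at 22 °C, over five buffer/ATP cycles with NaOH stripping and re-annealing in between. For each cluster, the fluorescence ratio is the summed Cy3 intensity of the target cycles divided by that of the buffer cycles, averaged per switch-domain sequence. Clusters outside 100-1000 RFU were left out.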
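Further: ATP exposure 15 min at 22 °C before imaging.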

| Sequence | switch fluorescence ratio |
| --- | --- |
| CCGTTGTTCG | 1.02 ± 0.027 |
| CCGTTGTTTG | 0.979 ± 0.011 |
| CCGTTTATAT | 1.4 ± 0.13 |
| CCGTTTTTAC | 4.11 ± 0.83 |
| CCGTTTTTAT | 1.01 ± 0.018 |
| CCTAAAAAGG | 1.26 ± 0.29 |
| CCTAAAGGCT | 1.0151 ± 4.7e-05 |
| CCTAAGTGTT | 1.06 ± 0.069 |
| CCTAATCGGT | 1.006 ± 0.0095 |
| CCTAATGCCG | 0.996 ± 0.04 |
| CCTAGGGAAG | 0.9972 ± 0.0046 |
| CCTAGTAGCG | 1.01 ± 0.014 |
| CCTAGTTGGC | 1.03 ± 0.083 |
| CCTATAATAG | 1.17 ± 0.064 |
| CCTATAATAT | 1.05 ± 0.024 |
| CCTCAAAAAA | 2.98 ± 0.2 |
| CCTCATGACA | 1.263 ± 0.0096 |
| CCTCATGGCA | 2.11 ± 0.17 |
| CCTCATTGGT | 1.026 ± 0.0093 |
| CCTCGACAGC | 3.43 ± 0.42 |
| CCTCGCGGGG | 1.08 ± 0.032 |
| CCTCGGTATG | 1.24 ± 0.025 |
| CCTCGTGTTT | 1.08 ± 0.0061 |
| CCTCGTTGAA | 1.22 ± 0.026 |
| CCTCTACG | 1.41 ± 0.044 |

| Sequence | switch fluorescence ratio |
| --- | --- |
| CCTGAGAACA | 1.02 ± 0.031 |
| CCTGAGACAC | 1.08 ± 0.052 |
| CCTGAGGGAT | 1.86 ± 1.4 |
| CCTGAGTCTG | 1.57 ± 0.038 |
| CCTGCTGTCC | 1.16 ± 0.051 |
| CCTGGAAGCG | 1.08 ± 0.045 |
| CCTGGAGGGG | 1.07 ± 0.066 |
| CCTGGATCGG | 1.09 ± 0.048 |
| CCTGGCGCTT | 2.06 ± 0.86 |
| CCTGGCGGCT | 1.06 ± 0.018 |
| CCTGGGAAGG | 0.991 ± 0.025 |
| CCTGGGGCAG | 1.17 ± 0.093 |
| CCTGGGGTTT | 1.09 ± 0.15 |
| CCTGGGTACC | 1.039 ± 0.0072 |
| CCTGGGTCTA | 1.03 ± 0.023 |
| CCTGGGTTAT | 1.02 ± 0.011 |
| CCTGGTTTTG | 1.04 ± 0.028 |
| CCTGGTTTTT | 1.12 ± 0.15 |
| CCTGTAAAGA | 1.02 ± 0.019 |
| CCTGTAGTCT | 1.04 ± 0.039 |
| CCTGTAGTTG | 1.04 ± 0.037 |
| CCTGTATCTT | 1.03 ± 0.018 |
| CCTGTCAGGC | 1.04 ± 0.026 |
| CCTGTCATCC | 1.17 ± 0.023 |
| CCTGTGATAT | 1.3 ± 0.031 |

| Sequence | switch fluorescence ratio |
| --- | --- |
| CCTGTGCAGG | 1.11 ± 0.02 |
| CCTGTGGATC | 1.05 ± 0.042 |
| CCTGTTACTT | 0.97 ± 0.04 |
| CCTGTTTTAC | 1.24 ± 0.045 |
| CCTTAAGTGT | 1.04 ± 0.041 |
| CCTTAATCTT | 0.987 ± 0.026 |
| CCTTACATCG | 1.12 ± 0.044 |
| CCTTACCTGT | 1.07 ± 0.065 |
| CCTTAGATTA | 1.01 ± 0.031 |
| CCTTATCAGG | 1.04 ± 0.02 |
| CCTTCACCGT | 2.21 ± 0.14 |
| CCTTCAGCGT | 1.73 ± 0.086 |
| CCTTCCTTGT | 2.06 ± 0.031 |
| CCTTCGGAGT | 3.99 ± 2.3 |
| CCTTCTTTTT | 1.06 ± 0.12 |
| CCTTGCTGTG | 1.06 ± 0.039 |
| CCTTGTACTG | 1.07 ± 0.042 |
| CCTTGTATTT | 1.01 ± 0.018 |
| CCTTGTCGG | 1.07 ± 0.083 |
| CCTTGTGTTG | 1.01 ± 0.017 |
| CCTTTGGGCA | 1.05 ± 0.023 |
| CCTTTGGGTC | 0.98 ± 0.014 |
| CCTTTTCGTG | 1.003 ± 0.0043 |
| CCTTTTGAAC | 1.04 ± 0.028 |
| CCTTTTTCAC | 1.03 ± 0.032 |

| Sequence | switch fluorescence ratio |
| --- | --- |
| CCTTTTTGGG | 0.9831 ± 0.0032 |
| CGAAACGGGG | 0.983 ± 0.042 |
| CGAAACTCTG | 1 ± 0.03 |
| CGAAACTTGA | 1.02 ± 0.038 |
| CGAAAGAGAG | 0.9911 ± 0.0022 |
| CGAAAGGGTT | 0.9983 ± 0.0072 |
| CGAAATGGCG | 1.053 ± 0.0038 |
| CGAACGGTGG | 0.998 ± 0.056 |
| CGAACGGTTT | 0.989 ± 0.016 |
| CGAACTCCTG | 1.05 ± 0.014 |
| CGAACTCGGA | 1.012 ± 0.0076 |
| CGAAGAGGGA | 0.9864 ± 0.0081 |
| CGAAGAGGTT | 0.98936 ± 0.00044 |
| CGAAGCTAGG | 2.16 ± 0.21 |
| CGAAGCTCTG | 1.09 ± 0.013 |
| CGAAGGGAAT | 1.03 ± 0.033 |
| CGAAGGGTGT | 0.999 ± 0.024 |
| CGAAGGTTTC | 1.034 ± 0.0023 |
| CGAATAAGCG | 0.995 ± 0.023 |
| CGAATACATA | 1.1 ± 0.011 |
| CGAATAGGCT | 1.006 ± 0.0029 |
| CGAATGGCCC | 1 ± 0.012 |
| CGAATGGGGG | 1 ± 0.029 |
| CGAATTCAGG | 1.012 ± 0.0068 |
| CGAATTGTTT | 0.962 ± 0.03 |

| Sequence | switch fluorescence ratio |
| --- | --- |
| CGAATTTACC | 1.19 ± 0.15 |
| CGACAAGAAC | 2.94 ± 0.18 |
| CGACAGATGT | 1.01 ± 0.018 |
| CGACAGGATG | 1.01 ± 0.033 |
| CGACATACGA | 1.56 ± 0.033 |
| CGACGAACGA | 1.54 ± 0.07 |
| CGACGAGGGG | 1 ± 0.03 |
| CGACGATACG | 0.991 ± 0.022 |
| CGACGGATTT | 1.12 ± 0.029 |
| CGACGGCTGG | 1.01 ± 0.07 |
| CGACGGGCGG | 1.02 ± 0.032 |
| CGACGTGGCG | 0.981 ± 0.064 |
| CGACGTTGGT | 1.08 ± 0.043 |
| CGACTAGCGA | 1.4082 ± 0.00063 |
| CGACTGGGAG | 0.981 ± 0.026 |
| CGAGACAGGT | 1.04 ± 0.0098 |
| CGAGACGTAT | 1.09 ± 0.042 |
| CGAGAGACCG | 0.951 ± 0.013 |
| CGAGAGGCGA | 1.05 ± 0.027 |
| CGAGATAAGG | 1 ± 0.014 |
| CGAGATATTG | 0.9827 ± 0.0019 |
| CGAGCACGGG | 1.47 ± 0.053 |
| CGAGCCCTTA | 0.986 ± 0.059 |
| CGAGCTTATC | 1.2 ± 0.056 |
| CGAGCTTCGT | 1.01 ± 0.034 |

| Sequence | switch fluorescence ratio |
| --- | --- |
| CGAGGACTTC | 1.02 ± 0.012 |
| CGAGGCAGCA | 1.199 ± 0.009 |
| CGAGGCCTCG | 0.994 ± 0.038 |
| CGAGGCGGAG | 1.01 ± 0.028 |
| CGAGGGAGTT | 0.986 ± 0.044 |
| CGAGGGGA | 1.018 ± 0.0082 |
| CGAGGGGATG | 1.006 ± 0.0088 |
| CGAGGGGCAC | 0.997 ± 0.013 |
| CGAGGGGCCA | 1 ± 0.027 |
| CGAGGGGGAT | 1.19 ± 0.27 |
| CGAGGGGGGC | 1.02 ± 0.092 |
| CGAGGGGGGG | 1.01 ± 0.025 |
| CGAGGGGGTT | 1 ± 0.02 |
| CGAGGGGTCC | 0.975 ± 0.043 |
| CGAGGGTGCA | 1.04 ± 0.021 |
| CGAGGTAGAG | 1.01 ± 0.049 |
| CGAGGTGAAG | 0.9922 ± 0.0049 |
| CGAGTAGCGG | 1.01 ± 0.036 |
| CGAGTAGTGC | 1.12 ± 0.033 |
| CGAGTATGCA | 0.981 ± 0.024 |
| CGAGTCTGCC | 1.04 ± 0.075 |
| CGAGTTAAAT | 1.01 ± 0.037 |
| CGAGTTGGAG | 1.01 ± 0.025 |
| CGAGTTTGGG | 1.001 ± 0.0031 |
| CGATAAAGGT | 1.016 ± 0.0095 |

| Sequence | switch fluorescence ratio |
| --- | --- |
| CGATAACCTT | 1.48 ± 0.48 |
| CGATAATGTG | 0.9727 ± 0.0063 |
| CGATATCAAT | 1.061 ± 0.0062 |
| CGATATGGGC | 1.02 ± 0.014 |
| CGATATGTCG | 1.41 ± 0.33 |
| CGATATTGGC | 0.985 ± 0.083 |
| CGATCAGTTG | 0.9853 ± 0.004 |
| CGATCCGGGA | 0.9982 ± 0.006 |
| CGATCGAGGA | 0.991 ± 0.036 |
| CGATCGGTCA | 1.0097 ± 0.00057 |
| CGATGAGAGT | 1.03 ± 0.064 |
| CGATGAGGTA | 0.968 ± 0.06 |
| CGATGGTTGA | 1 ± 0.042 |
| CGATGTAGTC | 1.05 ± 0.022 |
| CGATGTGTAC | 2.71 ± 0.17 |
| CGATGTTTGG | 0.988 ± 0.025 |
| CGATTAGGTA | 1 ± 0.041 |
| CGATTATCGG | 0.999 ± 0.014 |
| CGATTCACTT | 1.02 ± 0.021 |
| CGATTGCATT | 1.27 ± 0.045 |
| CGATTGCTGG | 0.989 ± 0.069 |
| CGATTGTATG | 0.992 ± 0.054 |
| CGATTTACTT | 1.02 ± 0.04 |
| CGATTTGAGG | 0.9967 ± 0.0079 |
| CGATTTGGAG | 0.995 ± 0.012 |

| Sequence | switch fluorescence ratio |
| --- | --- |
| CGATTTGGGG | 0.968 ± 0.017 |
| CGATTTTAGG | 1 ± 0.035 |
| CGATTTTGGG | 0.9844 ± 0.0047 |
| CGATTTTTTC | 0.9774 ± 0.003 |
| CGCAAACGCA | 3.62 ± 0.17 |
| CGCAAAGAGG | 1.18 ± 0.11 |
| CGCACCGGGT | 1.05 ± 0.015 |
| CGCACCGGTG | 1.02 ± 0.032 |
| CGCACGATGC | 2.89 ± 0.32 |
| CGCACTTCTG | 1.02 ± 0.024 |
| CGCAGCGATG | 2.66 ± 0.11 |
| CGCAGGGGGG | 1.09 ± 0.034 |
| CGCAGGGTTA | 1.02 ± 0.052 |
| CGCAGGTTAG | 1.11 ± 0.025 |
| CGCAGTTATT | 1.08 ± 0.014 |
| CGCAGTTGGA | 1.03 ± 0.039 |
| CGCATAAATA | 1.16 ± 0.034 |
| CGCATACGGT | 4.124 ± 0.029 |
| CGCATATGTA | 1.08 ± 0.033 |
| CGCATGAGTT | 1.017 ± 0.0098 |
| CGCATTAAAA | 0.969 ± 0.024 |
| CGCATTGTGG | 1.02 ± 0.042 |
| CGCATTTAGG | 1.08 ± 0.027 |
| CGCATTTAGT | 1.12 ± 0.0063 |
| CGCATTTGGT | 1.07 ± 0.036 |
